What was measured:
Experiment in all cases: ELISA
[1] = target: T1, CD86 (Homo sapiens (Human), UniProt P42081 24-247)
T1 sequence: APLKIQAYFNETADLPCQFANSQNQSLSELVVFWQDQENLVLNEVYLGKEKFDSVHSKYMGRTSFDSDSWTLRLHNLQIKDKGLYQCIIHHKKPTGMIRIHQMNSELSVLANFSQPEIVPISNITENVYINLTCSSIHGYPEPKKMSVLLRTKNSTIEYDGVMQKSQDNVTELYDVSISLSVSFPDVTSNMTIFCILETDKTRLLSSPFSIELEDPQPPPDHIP

[2] = target: T2, FSTL1 (Homo sapiens (Human), UniProt Q12841 21-308)
T2 sequence: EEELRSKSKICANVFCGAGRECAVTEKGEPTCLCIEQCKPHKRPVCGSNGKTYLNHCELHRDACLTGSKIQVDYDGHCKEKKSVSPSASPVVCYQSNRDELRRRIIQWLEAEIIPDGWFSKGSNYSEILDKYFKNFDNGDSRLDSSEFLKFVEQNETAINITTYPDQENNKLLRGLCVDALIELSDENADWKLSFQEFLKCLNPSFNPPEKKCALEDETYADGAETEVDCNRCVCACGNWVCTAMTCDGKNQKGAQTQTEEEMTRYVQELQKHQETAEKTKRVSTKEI

[3] = target: PLXDC2 (Homo sapiens (Human), UniProt Q6UX71 31-454)
Chain of PLXDC2 (Q6UX71 31-454 limits assumed): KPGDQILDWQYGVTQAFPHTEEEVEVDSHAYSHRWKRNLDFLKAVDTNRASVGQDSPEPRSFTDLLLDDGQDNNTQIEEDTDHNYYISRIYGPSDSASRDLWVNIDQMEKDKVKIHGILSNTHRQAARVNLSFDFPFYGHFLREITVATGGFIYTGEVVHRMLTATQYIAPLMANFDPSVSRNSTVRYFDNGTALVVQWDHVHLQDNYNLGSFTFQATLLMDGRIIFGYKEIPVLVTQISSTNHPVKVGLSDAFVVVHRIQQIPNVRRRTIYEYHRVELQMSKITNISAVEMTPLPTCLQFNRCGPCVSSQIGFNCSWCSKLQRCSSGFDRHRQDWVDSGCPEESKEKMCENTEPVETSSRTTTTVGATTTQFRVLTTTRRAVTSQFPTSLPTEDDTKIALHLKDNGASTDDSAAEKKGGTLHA

[4] = target: APCDD1 (Homo sapiens (Human), UniProt Q8J025 27-492)
Chain of APCDD1 (Q8J025 27-492 limits assumed): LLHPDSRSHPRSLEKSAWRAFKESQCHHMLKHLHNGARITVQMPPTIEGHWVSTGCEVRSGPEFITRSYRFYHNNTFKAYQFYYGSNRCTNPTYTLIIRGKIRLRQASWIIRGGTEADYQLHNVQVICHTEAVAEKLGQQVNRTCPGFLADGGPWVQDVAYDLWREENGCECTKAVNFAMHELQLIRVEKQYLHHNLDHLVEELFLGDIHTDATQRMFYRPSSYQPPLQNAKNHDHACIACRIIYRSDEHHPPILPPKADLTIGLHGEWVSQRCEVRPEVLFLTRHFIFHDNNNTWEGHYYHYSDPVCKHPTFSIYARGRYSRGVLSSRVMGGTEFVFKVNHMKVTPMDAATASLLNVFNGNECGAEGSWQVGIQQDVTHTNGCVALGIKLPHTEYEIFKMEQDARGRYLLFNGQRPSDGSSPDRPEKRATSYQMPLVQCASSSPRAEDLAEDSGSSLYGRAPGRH

[5] = target: T3, ICOSLG (Homo sapiens (Human), UniProt O75144 19-256)
T3 sequence: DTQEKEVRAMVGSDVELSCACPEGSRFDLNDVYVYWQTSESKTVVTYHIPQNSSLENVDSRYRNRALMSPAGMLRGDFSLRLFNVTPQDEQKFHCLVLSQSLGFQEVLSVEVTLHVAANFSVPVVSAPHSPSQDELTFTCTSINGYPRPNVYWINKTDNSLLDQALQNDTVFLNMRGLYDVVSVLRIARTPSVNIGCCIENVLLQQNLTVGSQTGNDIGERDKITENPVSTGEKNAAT

[6] = target: T4, FSTL3 (Homo sapiens (Human), UniProt O95633 27-263)
T4 sequence: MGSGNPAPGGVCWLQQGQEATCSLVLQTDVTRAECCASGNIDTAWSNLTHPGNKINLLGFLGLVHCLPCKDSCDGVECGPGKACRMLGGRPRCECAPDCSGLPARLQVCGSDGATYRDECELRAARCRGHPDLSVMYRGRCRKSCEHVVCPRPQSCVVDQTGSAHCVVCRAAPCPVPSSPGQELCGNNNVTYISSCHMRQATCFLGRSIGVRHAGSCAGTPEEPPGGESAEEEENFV

[7] = target: T5, BTN2A1 (Homo sapiens (Human), UniProt Q7KYR7 29-248)
T5 sequence: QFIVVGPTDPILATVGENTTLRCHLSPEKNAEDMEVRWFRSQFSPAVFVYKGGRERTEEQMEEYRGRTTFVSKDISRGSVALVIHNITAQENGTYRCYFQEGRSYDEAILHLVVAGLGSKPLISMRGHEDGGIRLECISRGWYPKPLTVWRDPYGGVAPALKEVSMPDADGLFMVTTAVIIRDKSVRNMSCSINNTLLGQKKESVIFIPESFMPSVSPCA

[8] = target: T6, GREM1 (Homo sapiens (Human), UniProt O60565 25-184)
T6 sequence: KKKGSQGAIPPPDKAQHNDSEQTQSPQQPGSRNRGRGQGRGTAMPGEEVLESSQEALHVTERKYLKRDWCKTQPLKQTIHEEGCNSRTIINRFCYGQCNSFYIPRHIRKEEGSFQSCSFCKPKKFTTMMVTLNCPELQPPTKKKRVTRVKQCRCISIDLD

[9] = target: T7, SLITRK5 (Homo sapiens (Human), UniProt O94991 41-664)
T7 sequence: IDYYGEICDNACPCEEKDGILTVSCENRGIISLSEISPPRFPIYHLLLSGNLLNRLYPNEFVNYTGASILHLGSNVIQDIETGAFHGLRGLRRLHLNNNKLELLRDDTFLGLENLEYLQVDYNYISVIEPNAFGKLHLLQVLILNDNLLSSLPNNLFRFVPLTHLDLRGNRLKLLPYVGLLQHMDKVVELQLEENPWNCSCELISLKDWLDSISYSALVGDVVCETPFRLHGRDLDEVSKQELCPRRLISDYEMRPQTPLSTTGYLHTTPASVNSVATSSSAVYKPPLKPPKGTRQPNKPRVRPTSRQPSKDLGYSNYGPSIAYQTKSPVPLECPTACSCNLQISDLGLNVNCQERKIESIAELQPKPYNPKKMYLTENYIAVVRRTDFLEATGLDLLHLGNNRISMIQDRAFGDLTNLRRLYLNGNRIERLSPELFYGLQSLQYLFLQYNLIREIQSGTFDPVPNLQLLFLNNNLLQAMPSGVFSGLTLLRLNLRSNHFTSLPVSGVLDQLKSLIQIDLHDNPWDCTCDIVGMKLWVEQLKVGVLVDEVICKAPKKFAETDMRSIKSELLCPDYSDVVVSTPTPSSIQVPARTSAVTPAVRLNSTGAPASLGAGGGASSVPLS

[10] = target: T8, WFDC2 (Homo sapiens (Human), UniProt Q14508 31-124)
T8 sequence: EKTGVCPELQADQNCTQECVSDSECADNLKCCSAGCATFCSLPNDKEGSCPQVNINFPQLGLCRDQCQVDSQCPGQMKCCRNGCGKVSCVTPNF

[11] = target: T9, ULBP1 (Homo sapiens (Human), UniProt Q9BZM6 26-216)
T9 sequence: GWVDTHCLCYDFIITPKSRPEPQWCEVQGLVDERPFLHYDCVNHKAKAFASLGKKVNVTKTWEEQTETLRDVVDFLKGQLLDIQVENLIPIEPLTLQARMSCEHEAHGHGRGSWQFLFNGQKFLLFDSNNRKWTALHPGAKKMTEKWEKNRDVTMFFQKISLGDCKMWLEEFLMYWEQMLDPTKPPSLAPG

Measured: binding result

B1: PD1-45D6 (antibody, V domains shown)
VH: QVQLVESGGGVVQPGRSLRLSCAASGFTFSSYAMHWVRQVPGKGLEWVAVISYDGNDKYYADSVKGRFTISRDNSKNTLYLQMNSLRAEDTAVYYCVPTTFEYWGQGSQVTVSS
VL: DIVMTQTPLSLPVTPGEAASISCRSSQSLLDSDDGKTYLDWYLQKPGQSPQLLIYTLSYRASGVPDRFSGSGSGTEFNLRISRVEAEDVGIYYCMQRVEFPFTFGQGTKLDIK
notes: scFv-phage in the screening ELISA; whole IgG in the other assays
no binding (tested: 1 ug/ml): all assays above

B2: PD1-41C9 (antibody, V domains shown)
VH: QMQLVESGGGVVQPGRSLRLSCAASGFTFSSYAMHWVRQAPGKGLEWVAVISYDGSNKYYADSVKGRFTISRDNSKNTLYLQMNRLRSEDTAVYYCTTTTFDSWGQGTLITVSS
VL: DIVMTQTPLSLPVTPGEAASISCRSSQSLLDSEDGNTYLDWYLQKPGQSPQLLIYTLSHRASGVPDRFSGSGSGTDFTLKISRVAAEDVGLYYCLQRMGFPYTFGQGTKLDIK
notes: as for B1
no binding (tested: 1 ug/ml): all assays above

B3: PD1-49A2 (antibody, V domains shown)
VH: QVQLVESGGGVVQPGRSLRLSCAASGFTFSSYAMHWVRQAPGKGLEWVAVISYDGSNKYYADSVKGRFTISRDNPKNTLYLQMNSLRAEDTAVYYCTTTTFDSWGRGTLVTVSS
VL: DIVMTQSPLSLPVTPGEPASISCRSSQSLFDSDDGNTYLDWYLQKPGQSPQLLIYTLSHRASGVPDRFSGSGSGTDFTLKISRVEAEDVGIYYCLQRMGFPYTFGQGTKVEIK
notes: scFv-phage in the screening ELISA; whole IgG in the other assays; also called Parent 49A2
no binding (tested: 1 ug/ml): all assays above

Reference: US20190248900A1 (Y BIOLOGICS, published 2019)
